Key:
[1] = target: SARS-CoV-2 Spike on HIV-based pseudotyped virus (Spike plasmid BEI NR52310) (SARS-CoV-2) (UniProt P0DTC2); test: cell-based or functional assay
[2] = target: mouse FcγRI (mouse) (UniProt P26151)
[3] = target: mouse FcRn (mouse) (UniProt Q61559); test: pH 5.6
[4] = target: mouse FcRn (mouse) (UniProt Q61559)

Sequence of mouse FcγRI (mouse) (P26151 25-297 limits assumed): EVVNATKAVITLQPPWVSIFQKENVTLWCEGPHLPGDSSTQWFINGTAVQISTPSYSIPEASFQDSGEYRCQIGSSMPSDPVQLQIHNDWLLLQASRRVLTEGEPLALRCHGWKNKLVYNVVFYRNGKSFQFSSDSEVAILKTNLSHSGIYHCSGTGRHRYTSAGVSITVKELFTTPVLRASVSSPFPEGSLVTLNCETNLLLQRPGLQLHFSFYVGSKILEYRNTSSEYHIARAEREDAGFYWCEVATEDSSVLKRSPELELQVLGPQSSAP

Row | Kd [2] [pM] | koff [2] [s⁻¹] | kon [2] [M⁻¹ s⁻¹] | Kd [3] [pM] | koff [3] [s⁻¹] | kon [4] [M⁻¹ s⁻¹] | Substance | IC50 (PsV neutralization) [1] [µg/mL]
1 |  |  |  |  |  |  | REGN10933 (recombinant mAb, reference IgG) (antibody) | 0.0044
2 |  |  |  |  |  |  | REGN10987 (recombinant mAb, reference IgG) (antibody) | 0.03
3 | < 1 | < 1e-07 | 939000 | < 1 | < 1e-07 | 682000 | mouse surrogate Multabody (HD37, mouse IgG2a Fc, mouse apoferritin), WT Fc | 
4 |  |  |  | < 1 | < 1e-07 | 2.4e+06 | mouse surrogate Multabody with LALAP Fc | 

Source: US20250011397A1
